From publication PMC7137635, “Disrupting the LC3 Interaction Region (LIR) Binding of Selective Autophagy Receptors Sensitizes AML Cell Lines to Cytarabine” (Frontiers in Cell and Developmental Biology, 2020)
Non-standard residues stand in square brackets, D forms with d. No end group written: not given here. *: point of attachment. Biotin = O=C1N[C@H]2[C@H](CS[C@H]2CCCCC(=O)*)N1; pS = N[C@@H](COP(=O)(O)O)C(=O)O

Experiments:
[1] = molecular target: HIS-tagged LC3Bwt (aa 1-119) (human, UniProt Q9GZQ8 1-119); experiment: BLI; Octet RED96; N-terminally biotinylated peptides on streptavidin biosensors, quenched with biocytin; HIS-tagged LC3B/GATE-16 proteins as analyte, 6.8 nM to 5 μM (LC3Bwt on NDP52 peptide: 312.5 nM to 20 μM); DPBS with 150 mM NaCl, 1% BSA, 0.02% Tween 20; 1:1 global fit; conditions: both partners purified
[2] = molecular target: HIS-tagged GATE-16wt (aa 1-115) (human, UniProt P60520 1-115); experiment: as above; conditions: both partners purified
HIS-tagged GATE-16wt (aa 1-115), sequence (P60520 1-115): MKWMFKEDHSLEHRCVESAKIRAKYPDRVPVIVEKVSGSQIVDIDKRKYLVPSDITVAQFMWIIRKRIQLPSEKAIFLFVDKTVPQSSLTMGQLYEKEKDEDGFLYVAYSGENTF

B1: OPTN LIR peptide (172-186), biotinylated (peptide)
peptide: Biotin-GSSEDSFVEIRMAEG
notes: human optineurin (OPTN) LIR peptide, residues 172-186; also called OPTN (172–186); OPTN peptide; source: synthetic peptide (GenScript, over 75% purity)
Kd [1]: 8.4 µM

B2: p62 LIR peptide (332-346), biotinylated (peptide)
peptide: Biotin-SGGDDDWTHLSSKEV
notes: human p62/SQSTM1 LIR peptide, residues 332-346; also called p62 (332–346); source: synthetic peptide (GenScript, over 75% purity)
binding result [2]: binds

B3: pS177 OPTN LIR peptide (172-186), biotinylated (peptide)
peptide: Biotin-GSSED[pS]FVEIRMAEG
notes: also called pS177 OPTN (172–186); pS177 OPTN peptide; source: synthetic peptide (GenScript, over 75% purity)
Kd [1]: 0.8 ± 0.048 µM
